In publication doi:10.64898/2025.12.16.694761:

Molecular target: Nitrous oxide reductase NosZ (clade I) of Trinickia sp. Z7 (Trinickia sp. Z7)
Assay: cryo-EM structure

stoichiometry N: 2
Substance: Nitrous oxide reductase NosZ (clade I) of Trinickia sp. Z7 (enzyme)
